# From US20250011410A1 (INVETX, published 2025)
# Numbering of substitutions follows the chain as printed. Names may count otherwise. “And” between values parts separate entries of the source, which are not always exact repeats. Equal entries are not always repeated.
# B1: felinized clone 101 Fab-SASA (wild-type) (Fab, V domains shown, not shown: small tags and cut ends)
# VH: DVQLVESGGDLVKPGGSLRLTCVASGLSLTSSSMSWVRQAPGKGLQWVSTIYSNGGTYYTDSVKGRFTISKDNAENTLYLQMNNLKTEDTATYYCASIYYYDADYLHWYFDFWGQGALVTVSS
# VL: EIQMTQSPTSLSASVGDRVTITCRASEGISNNLSWYQQTPGKAPKLLIYATSNLHSGVPSRFSGSGSGTDFTLTISSLQPEDFATYYCQQGYKWPLTFGGGTKLEITR
# B2: AHF17591 (Fab, V domains shown, not shown: small tags and cut ends)
# VH: B1 VH with S35V, G55R, F112E
# VL: B1 VL with S30A, N53I
# B3: AHF17592 (Fab, V domains shown, not shown: small tags and cut ends)
# VH: B1 VH with S35V, G55R
# VL: B1 VL with N53V
# B4: AHF17593 (Fab, V domains shown, not shown: small tags and cut ends)
# VH: B1 VH with S35V, G55R, S97Q
# VL: B1 VL with S30A, N53V
# notes: Fab-SASA, combinatorial library
# B5: AHF17594 (Fab, V domains shown, not shown: small tags and cut ends)
# VH: B1 VH with S35V
# VL: B1 VL with S30A, N53V
# B6: AHF17595 (Fab, V domains shown, not shown: small tags and cut ends)
# VH: B1 VH with S35V, G55R, F112E
# VL: B1 VL with S30Q
# B7: AHF17596 (Fab, V domains shown, not shown: small tags and cut ends)
# VH: B1 VH with S35V, G55R
# VL: B1 VL with S30A, N53V
# B8: AHF17597 (Fab, V domains shown, not shown: small tags and cut ends)
# VH: B1 VH with S35V, G55R
# VL: B1 VL with S30Q, N53I
# B9: AHF17598 (Fab, V domains shown, not shown: small tags and cut ends)
# VH: B1 VH with S35V, G55R, F112E
# VL: B1 VL with S30A, N53I
# B10: AHF17599 (Fab, V domains shown, not shown: small tags and cut ends)
# VH: B1 VH with S35V, G55R
# VL: B1 VL with S30A, N53V
# B11: AHF17600 (Fab, V domains shown, not shown: small tags and cut ends)
# VH: B1 VH with S35V, G55R
# VL: B1 VL with N53V
# B12: AHF17601 (Fab, V domains shown, not shown: small tags and cut ends)
# VH: B1 VH with S35V, G55R, S97Q, F112E
# VL: B1 VL with S30A
# B13: AHF17602 (Fab-SASA) (Fab, V domains shown, not shown: small tags and cut ends)
# VH: B1 VH with S35V, G55R
# VL: B1 VL with S30A
# B14: AHF17603 (Fab, V domains shown, not shown: small tags and cut ends)
# VH: B1 VH with S35V, F112E
# VL: B1 VL with S30A, N53I
# B15: AHF17604 (Fab, V domains shown, not shown: small tags and cut ends)
# VH: B1 VH with S35V, G55R, S97Q
# VL: B1 VL with S30Q, N53I
# notes: as for B4
# B16: AHF17605 (Fab, V domains shown, not shown: small tags and cut ends)
# VH: B1 VH with S35V, S97Q
# VL: B1 VL with S30A, N53I
# notes: as for B4
# B17: AHF17606 (Fab, V domains shown, not shown: small tags and cut ends)
# VH: B1 VH with S35V, G55R
# VL: B1 VL with S30A
# B18: AHF17607 (Fab, V domains shown, not shown: small tags and cut ends)
# VH: B1 VH with S35V, G55R, F112E
# VL: B1 VL with N53I
# B19: AHF17608 (Fab, V domains shown, not shown: small tags and cut ends)
# VH: B1 VH with S35V, G55R
# VL: B1 VL with S30A, N53V
# B20: AHF17609 (Fab, V domains shown, not shown: small tags and cut ends)
# VH: B1 VH with S35V, G55R
# VL: B1 VL with S30A, N53I
# B21: AHF17610 (Fab, V domains shown, not shown: small tags and cut ends)
# VH: B1 VH with S35V, G55R
# VL: B1 VL with S30A
# B22: felinized clone 101 Fab-SASA variant Y58D (VH) (Fab, V domains shown, not shown: small tags and cut ends)
# VH: B1 VH with Y58D
# VL: B1 VL
# B23: felinized clone 101 Fab-SASA variant Y99F (VH) (Fab, V domains shown, not shown: small tags and cut ends)
# VH: B1 VH with Y99F
# VL: B1 VL
# B24: felinized clone 101 Fab-SASA variant Y101H (VH) (Fab, V domains shown, not shown: small tags and cut ends)
# VH: B1 VH with Y101H
# VL: B1 VL
# B25: felinized clone 101 (antibody, V domains shown)
# VH: B1 VH
# VL: EIQMTQSPTSLSASVGDRVTITCRASEGISNNLSWYQQTPGKAPKLLIYATSNLHSGVPSRFSGSGSGTDFTLTISSLQPEDFATYYCQQGYKWPLTFGGGTKLEIT
# B26: AHF17602 (antibody, V domains shown)
# VH: B1 VH with S35V, G55R
# VL: B25 VL with S30A
# notes: also called AIF17602
# B27: SC-184_76 (antibody, IgG1a, V domains shown)
# VH: B1 VH with S32D, I51L, Y52W, D102E
# VL: B25 VL with S30A, Y92F
# B28: SC-184_76-Arg (antibody, V domains shown)
# VH: B1 VH with S32D, I51L, Y52W, G55R, D102E
# VL: B25 VL with S30A, Y92F
# notes: SC-184_76 containing the G55R mutation in VH; feline antibody captured on an anti-feline chip
# B29: SC-184_102 (antibody, IgG1a, V domains shown)
# VH: B1 VH with S32N, Y52W, D102E, D104E
# VL: B25 VL with E27K, T51Q
# notes: also called SC-102
# B30: SC-184_102-Arg (antibody, V domains shown)
# VH: B1 VH with S32N, Y52W, G55R, D102E, D104E
# VL: B25 VL with E27K, T51Q
# notes: SC-184_102 containing the G55R mutation in VH; feline antibody captured on an anti-feline chip
# B31: SC-184_110 (antibody, IgG1a, V domains shown)
# VH: B1 VH with S32A, D102E, D104E
# VL: B25 VL with N31K, S52D, Y92W
# notes: also called SC-110
# Biological target: T1, canine NGF tagged at the C-terminus with the Flag tag (canine, UniProt A0A8I3PYI3 122-241)
# T1 construct: mature; Expressed with baculovirus technology; also called feline NGF (processed form identical)
# Test: SPR off-rate assay, Fab-SASA on BSA chip
# T1 sequence (A0A8I3PYI3 entry or part of it): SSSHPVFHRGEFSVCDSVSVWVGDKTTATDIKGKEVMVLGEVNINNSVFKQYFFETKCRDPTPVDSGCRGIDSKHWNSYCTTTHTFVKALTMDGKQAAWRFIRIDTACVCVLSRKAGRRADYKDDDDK
Binder,Kd,Ratio (KD) WT/clones,koff,kon,Ratio (kd) WT/clones
B1,3150 pM and 3780 pM and 3470 pM,0,0.00179 s⁻¹ and 0.00158 s⁻¹ and 0.00169 s⁻¹,569000 M⁻¹ s⁻¹ and 419000 M⁻¹ s⁻¹ and 494000 M⁻¹ s⁻¹,
B2,≤ 3.73 pM,926,≤ 1e-06 s⁻¹,268000 M⁻¹ s⁻¹,1680
B3,76.1 pM,45.4,1.46e-05 s⁻¹,192000 M⁻¹ s⁻¹,115
B4,≤ 6.13 pM,563,≤ 1e-06 s⁻¹,163000 M⁻¹ s⁻¹,1680
B5,931 pM,3.71,0.000328 s⁻¹,353000 M⁻¹ s⁻¹,5.14
B6,≤ 5.62 pM,615,≤ 1e-06 s⁻¹,178000 M⁻¹ s⁻¹,1680
B7,80.2 pM,43.1,1.82e-05 s⁻¹,227000 M⁻¹ s⁻¹,92.6
B8,54.4 pM,63.5,1.08e-05 s⁻¹,199000 M⁻¹ s⁻¹,156
B9,179 pM,19.3,5.25e-05 s⁻¹,294000 M⁻¹ s⁻¹,32.1
B10,≤ 4.72 pM,732,≤ 1e-06 s⁻¹,212000 M⁻¹ s⁻¹,1680
B11,329 pM,10.5,5.81e-05 s⁻¹,177000 M⁻¹ s⁻¹,29
B12,≤ 3.44 pM,1010,≤ 1e-06 s⁻¹,291000 M⁻¹ s⁻¹,1680
B13,≤ 4.76 pM,726,≤ 1e-06 s⁻¹,210000 M⁻¹ s⁻¹,1680
B14,664 pM,5.2,0.000245 s⁻¹,368000 M⁻¹ s⁻¹,6.88
B15,321 pM,10.8,4.66e-05 s⁻¹,145000 M⁻¹ s⁻¹,36.2
B16,820 pM,4.21,0.000207 s⁻¹,253000 M⁻¹ s⁻¹,8.14
B17,107 pM,32.3,2.01e-05 s⁻¹,187000 M⁻¹ s⁻¹,83.8
B18,≤ 4.42 pM,781,≤ 1e-06 s⁻¹,226000 M⁻¹ s⁻¹,1680
B19,≤ 4.39 pM,788,≤ 1e-06 s⁻¹,228000 M⁻¹ s⁻¹,1680
B20,≤ 4.39 pM,788,≤ 1e-06 s⁻¹,228000 M⁻¹ s⁻¹,1680
B21,≤ 5.49 pM,629,≤ 1e-06 s⁻¹,182000 M⁻¹ s⁻¹,1680

# Biological target: T1, canine NGF tagged at the C-terminus …
# Test: SPR off-rate screen, Fab-SASA on BSA chip
Binder,Kd,Ratio WT-kd/clone-kd,koff,kon
B1,2620 pM and 2660 pM and 2690 pM,1,0.000939 s⁻¹ and 0.000943 s⁻¹ and 0.000947 s⁻¹,359000 M⁻¹ s⁻¹ and 355000 M⁻¹ s⁻¹ and 351000 M⁻¹ s⁻¹
B22,1470 pM,1.68,0.000562 s⁻¹,381000 M⁻¹ s⁻¹
B23,1460 pM,2.01,0.000469 s⁻¹,321000 M⁻¹ s⁻¹
B24,1620 pM,1.9,0.000496 s⁻¹,307000 M⁻¹ s⁻¹

# Biological target: T2, canine NGF tagged at the C-terminus with the Flag tag (canine, UniProt A0A8I3PYI3 122-241)
# T2 construct: mature; 'mature' rests on the words 'processed form'; also called feline NGF (processed form identical)
# Test: SPR, Biacore T200; antibody captured on anti-feline CM5 chip, NGF as analyte; 1:1 model
# T2 sequence (A0A8I3PYI3 entry or part of it): as above
Binder,Kd,koff,kon
B25,1750 pM,0.00138 s⁻¹,784000 M⁻¹ s⁻¹
B26,161 pM,6.32e-05 s⁻¹,394000 M⁻¹ s⁻¹
B27,472 pM,0.000396 s⁻¹,838000 M⁻¹ s⁻¹
B28,154 pM,9.01e-05 s⁻¹,585000 M⁻¹ s⁻¹
B29,420 pM,0.000198 s⁻¹,471000 M⁻¹ s⁻¹
B30,129 pM,4.43e-05 s⁻¹,343000 M⁻¹ s⁻¹
B31,773 pM,0.00038 s⁻¹,492000 M⁻¹ s⁻¹
